pKd: −log10 of the molar value.
Biological target: MUC1 (TA-Muc1) on the human tumor cell line ZR-75-1 (human) (UniProt P15941)
Assay: Scatchard analysis, 111In-labelled antibody on ZR-75-1 cells

Q: PankoMab expressed in CHO (antibody) was tested. Which pKd did it give?
A: 8.11

Q: With PankoMab expressed in GT-5s (antibody) as the substance, how does the pKd read?
A: 8.48
